Measured values published in publication PMC8989513.

Tests used:
Experiment in all cases: BLI
[1] = molecular target: C-terminally biotinylated MYC(1–88)
[2] = molecular target: MYC(1–88 P21A), C-terminally biotinylated
[3] = molecular target: biotinyl-MB0 peptide (MYC Box 0, aa 16–33)
[4] = molecular target: MYC(1–88 Y22A), C-terminally biotinylated
[5] = molecular target: C-terminally biotinylated MYC(1–88)ΔMB0
[6] = molecular target: MYC(1–88 F23A), C-terminally biotinylated
[7] = molecular target: MYC(1–88 Y24A), C-terminally biotinylated

B1: PNUTS(1–148), PNUTS amino-terminal domain (PAD) (domain or fragment)
chain: MGSGPIDPKELLKGLDSFLNRDGEVKSVDGISKIFSLMKEARKMVSRCTYLNILLQTRSPEILVKFIDVGGYKLLNNWLTYSKTTNNIPLLQQILLTLQHLPLTVDHLKQNNTAKLVKQLSKSSEDEELRKLASVLVSDWMAVIRSQS
[1]
  Kd: 3.5 µM
[2]
  fold change of KD against wild-type MYC(1–88): > 5 fold
[3]
  Kd: 9.4 µM
[4]
  fold change of KD against wild-type MYC(1–88): > 5 fold
[5]
  Kd: > 100 µM
[6]
  fold change of KD against wild-type MYC(1–88): > 5 fold
[7]
  fold change of KD against wild-type MYC(1–88): > 5 fold
